Data: US20030186377

System: T-bet protein (modified forms used as substrates in in vitro kinase assays)

## ITK
  phosphorylation in in vitro kinase assay: Both the ITK and Rlk/txk kinases have been found to phosphorylate T-bet in vitro.

## Rlk/Txk
  phosphorylation in in vitro kinase assay: Both the ITK and Rlk/txk kinases have been found to phosphorylate T-bet in vitro.
